The results in this text go back to US20240209061A1, “FUSION PROTEINS AND USES THEREOF” (Pfizer Inc., priority 2020, published 2024).

The nature of series [1]: Thermal forced aggregation (SEC). Conditions: Table 11, 24 hours, PBS. The series is classed as physicochemical. On the procedure:
To assess the aggregation propensity of variant CD80-Fc fusion proteins, 1 mg/ml of CD80-Fc fusion protein was incubated in PBS at increasing temperatures for 24 hours. The samples were analyzed by SEC on an Agilent 1100 (Agilent Technologies, Germany) HPLC system using a YMC-Pack Diol-200 (YMC, Germany) analytical size exclusion chromatography column and PBS supplemented to 400 mM NaCl as running buffer. % aggregation was calculated from the loss of intact peak area. […] ND=Not Determined.

The subject of series [2] is human peripheral blood mononuclear cells (PBMCs). Put plainly: Human PBMC IL-2 production assay with plate-bound anti-CD3. The series is classed as cell-based. On the procedure:
The ability of the variant CD80-Fc fusion proteins to promote IL-2 production in the context of anti-CD3 (to stimulate T cell receptor signaling) in human peripheral blood mononuclear cells (PBMCs) was tested. To bind anti-CD3 antibody on the plate, the anti-human-CD3 (clone HIT3a, BD Pharmingen) was incubated in 96-well plates at 4° C. overnight at 1 μg/ml unless otherwise noted. Human PBMCs were isolated from freshly collected human whole blood using Ficoll-Paque Plus. Human PBMCs (100,000 per well) were incubated with plate-bound anti-CD3 and the indicated concentrations of soluble CD80-Fc fusion protein in RPMI+10% HI-FBS, pen/strep, sodium pyruvate and non-essential amino acids. After 48 hours incubation, supernatants were collected and IL-2 measured by the Quantikine human IL-2 ELISA kit from R&D.
Additional CD80-Fc fusion proteins were tested in the same PBMC assay, at the concentration of anti-human-CD3 (clone HIT3a, BD Pharmingen) noted.

The subject of series [3] is peripheral blood mononuclear cells (PBMC). Put plainly: RESTORE cytokine release assay in absence of TCR stimulation. Conditions: Table 20. The series is classed as cell-based, human. Further details: IFNγ: unit not given beside the values. The method, then:
The ability of variant CD80-Fc fusion proteins to promote cytokine release in the absence of TCR stimulation was assessed in the RESTORE (RESetting T cells to Original Reactivity) assay (Römer et al, Blood, 2011). Freshly isolated peripheral blood mononuclear cells (PBMC) from whole blood of several healthy donors were cultured for 48 hours at […] within RPMI1640 media supplemented with 10% autologous plasma, 10 mM HEPES, 1× GlutaMAX, 1× PenStrep, beta2-mercaptoethanol, NEAA and sodium pyruvate. Following the 48-hour incubation, PBMC were pelleted and resuspended at a final concentration of 10^6/ml with indicated soluble drug. Treatment was allowed for 48 hours then supernatant was harvested and assessed in IL-2 and IFNγ ELISA according to manufacturer's protocol (BioLegend).
Positive controls included CD28 superagonist anti-CD28 clone TGN1412 as IgG1 and IgG4 isotypes and anti-CD3. […] Values shown are the average of 3 technical replicates. D=Donor.

In series [4] the test system is CT26 murine colorectal carcinoma tumor cells. As to the kind of experiment: CT26 murine colorectal carcinoma model. The series is classed as in vivo, mouse. Conditions: for Day 10 tumor volume: Days 0 and 3; for % tumor growth inhibition: Day 10. On the procedure: CT26 murine colorectal carcinoma tumor cells (1×10^6) were subcutaneously implanted in the hind flank of female Balb/c mice. When tumors reached ˜100 mm3 (Day 8), mice were randomized. PBS vehicle control or variant CD80-Fc fusion proteins were dosed intravenously at 0.1 and 1.0 mg/kg on Days 0 and 3. Tumor volume was determined by caliper measurements obtained in 2 dimensions and calculated as width^2×length/2. Error bars are depicted as ±SEM.
IFNγ ELIspot was used to measure tumor-reactive T cells in the spleen in mice treated with CD80-Fc fusion proteins at a 1 mg/kg dose.
Cytotoxic CD8^+ T cells are responsible for killing cancer cells and the measurement of CD8^+ T cells that have infiltrated tumors commonly correlates with efficacy for immune-oncology therapies. For all in vivo studies, tumors were collected ˜1 week after the first dose and dissociated by mincing, followed by incubation in an enzymatic digestion cocktail and homogenization. The resulting cell suspension was filtered and washed, and single cells were stained with antibodies to CD45, CD8, and a viability dye to detect tumor-infiltrating lymphocytes (TILs) by flow cytometry. Data were acquired on a BD LSRFortessa flow cytometer or a Cytek Aurora spectral flow cytometer. Table 31 and FIG. 18 show the amount of tumor-infiltrating CD8+ T cells expressed as a percentage of total immune cells (CD45+). Each value is the average of n=4 mice per group. Treatment with all variant CD80-Fc fusion proteins led to increase in CD8+ TILs in various tumor models.

Series [5] deals with B16F10 murine melanoma cells. Put plainly: B16F10 melanoma model, combination with αPD1 antibody. It is filed as in vivo, mouse. Particulars: CD80-D90Q-E23C-A26C-Fc 3 mg/kg and/or αPD1 Ab 10 mg/kg. The method, then:
B16F10 murine melanoma cells (0.5 million) were subcutaneously implanted in the hind flank of female C57BL/6J mice. When tumors reached ˜100 mm3, mice were randomized and dosed with PBS vehicle control, 3 mg/kg CD80-D90Q-E23C-A26C-Fc, and or 10 mg/kg murine αPD1 antibody. CD80-D90Q-E23C-A26C-Fc was dosed on Days 0 and 3, αPD1 antibody was dosed on Days 0, 3 and 6. Tumor volume was determined by caliper measurements obtained in 2 dimensions and calculated as width^2×length/2. Error bars are depicted as ±SEM

The nature of series [6]: Pharmacokinetics in huFcRn transgenic mice. Particulars: 0.1 mg/kg IV.
Description: PK of CD80-Fc fusion proteins was also assessed in transgenic mice expressing the human neonatal Fc receptor (huFcRn) a-chain transgene under the control of its natural human promoter. Female mice were dosed intravenously with CD80-Fc fusion proteins at 0.1 mg/kg, and blood was collected at the timepoints indicated on the graph. Levels of CD80-Fc in mouse plasma were measured as described above.
Series [7] can be described thus: Thermal stability by Differential Scanning calorimetry (DSC). The series is classed as physicochemical. Conditions: PBS. On the procedure: There is a correlation between the thermal stability of a protein with the overall stability of the protein. Enhanced thermal stability often provides improved manufacturability and longer shelf life/stability. Thermal stability of variant CD80-Fc fusion proteins was assessed by Differential Scanning calorimetry (DSC). Variant CD80-Fc fusion proteins were analyzed using a MicroCal VP-DSC instrument. […] Tables 8-10 show the first thermal transition temperature (Tm1) of CD80-Fc fusion proteins and the enhanced thermal stability of variant CD80-Fc fusion proteins compared to CD80-WT-Fc fusion proteins.

A word on the EC50: it is the concentration at which the effect is half-maximal. By AUC is commonly meant the area under the concentration-time curve, a measure of exposure. The term Vdss denotes a proportionality between amount in the body and measured concentration, not a real space. For orientation: Cmax means the peak of the concentration-time curve. Regarding “CD80-D90Q-E23C-A26C-Fc: disulfide stabilized variant CD80-Fc fusion protein (D90Q, E23C, A26C)”, the “% aggregation” value in series [1] (40° C.) is 0.0%; in series [1] (45.3° C.) it was 0.1%; in series [1] (49.4° C.) it was 0.1%; in series [1] (54.9° C.) it was 0.5%; in series [1] (59.1° C.) it was 26.2%; in series [1] (64° C.) it was 68.8%. Further, a half-maximal effect in series [2] (average of 5 PBMC donors, 1 μg/ml anti-CD3, 48 hours) (EC50) was put at 24.2 ± 10 nM. The IFNγ in series [3] (D222, 1 μg/ml) amounted to 4.0; in series [3] (D222, 10 μg/ml) it was 4.7; in series [3] (D281, 1 μg/ml) it was 5.0; in series [3] (D281, 10 μg/ml), 6.3; in series [3] (D462, 1 μg/ml) it was 7.3; in series [3] (D462, 10 μg/ml) it was 6.0. In addition, the IFNγ in series [3] (D547, 1 μg/ml) amounted to 3.3; in series [3] (D547, 10 μg/ml), 5.0. Further, the IL-2 worked out at 7.0 in series [3] (D222, 1 μg/ml); 11.0 in series [3] (D222, 10 μg/ml); 2.0 in series [3] (D281, 1 μg/ml); 2.0 in series [3] (D281, 10 μg/ml); 1.7 in series [3] (D462, 1 μg/ml); 2.0 in series [3] (D462, 10 μg/ml). The IL-2 in series [3] (D547, 1 μg/ml) amounted to 4.3; in series [3] (D547, 10 μg/ml), 12.0. In addition, the “Number of tumor regressions” value in series [4] (0.1 mg/kg) was 2/10; in series [4] (1 mg/kg) it was 9/10. The results for the “Day 10 tumor volume” value in series [4] (0.1 mg/kg IV), in series [4] (1 mg/kg IV) and in series [5] were 388.9 mm^3, 197.8 mm^3 and 1208.8 mm^3, respectively. The “% tumor growth inhibition” value in series [4] (0.1 mg/kg) is 67.53%; in series [4] (1 mg/kg), 83.49%; in series [5] (Day 10), 26.3%. Moreover, the “# IFNγ-producing spots (tumor-reactive T cells in spleen)” value in series [4] (1 mg/kg, average of n = 4 mice) was determined as 523.1875. In series [6], the exposure (AUC) came to 88000 ng·h/mL. Moreover, the CL in series [6] was found to be 15.8 mL/day/kg. In series [6], this substance displayed a T1/2 of 148 h. In series [6], this substance registered a volume of distribution (Vdss) of 0.131 L/kg. The same substance registered a Cmax in series [6] (average of 3 animals) of 1400 ng/mL.
Turning to “CD80-T28V-T57V-Fc: non-cysteine stabilized variant CD80-Fc fusion protein”, the “DSC Tm1” value in series [7] worked out at 64 °C. The same substance showed an EC50 in series [2] (Donor 418, 0.3 ug/ml anti-CD3) of 2.64 nM.
